Assay results as given in patent US20250027060A1 (VIB VZW, published 2025).
Residue numbers refer to the chain shown, from its start. Numbers in names are those of the source. Blank lines part the entries; values can stand above or below the binder they belong to.

Experiments:
[1] = biological target: T1, ALKTG (human ALK amino acids 648-985) (human, UniProt Q9UM73 648-985, N-linked glycans; EndoH-trimmed for crystals and SEC-MALLS); assay: ITC
T1 construct: Fc-His6 tag removed by caspase 3; also called ALK TG supradomain
T1 sequence (Q9UM73 648-985 limits assumed): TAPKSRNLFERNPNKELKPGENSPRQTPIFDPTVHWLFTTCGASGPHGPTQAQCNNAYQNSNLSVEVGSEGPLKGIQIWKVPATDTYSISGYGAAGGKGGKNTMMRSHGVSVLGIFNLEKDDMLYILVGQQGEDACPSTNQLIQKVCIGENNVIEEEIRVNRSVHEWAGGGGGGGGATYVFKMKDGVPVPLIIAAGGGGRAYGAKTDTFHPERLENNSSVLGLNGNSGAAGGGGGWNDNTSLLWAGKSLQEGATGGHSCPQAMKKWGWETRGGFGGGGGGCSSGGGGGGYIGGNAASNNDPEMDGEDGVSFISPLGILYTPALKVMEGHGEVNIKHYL
Description: (§1) Experiments were performed using a MicroCal PEAQ-ITC instrument at 310K. Proteins used in ITC experiments were expressed in HEK293S cells grown in suspension. As a final purification step all proteins were buffer exchanged to the same HBS buffer via size-exclusion chromatography. Titrations were preceded by an initial injection of 0.5 μL. The injection spacing was optimized per experiment to allow for the signal to get back to a stable baseline. Throughout the titration the sample was stirred at a speed of 750 r.p.m. Data were analyzed using the PEAQ-ITC analysis software (version 1.1.0.1262, Malvern) and fit using a “one set of sites” model.

[2] = biological target: T2, LTKTG-EGFL (human LTK amino acids 63-420) (human, UniProt P29376 63-420); assay: ITC at 310 K, LTKTG-EGFL (5 µM) titrated with ALKAL1 (56 µM), one-site model
T2 construct: Fc-His6 tag removed by caspase 3; also called LTK (in BLI, SEC-MALLS and ITC)
T2 sequence: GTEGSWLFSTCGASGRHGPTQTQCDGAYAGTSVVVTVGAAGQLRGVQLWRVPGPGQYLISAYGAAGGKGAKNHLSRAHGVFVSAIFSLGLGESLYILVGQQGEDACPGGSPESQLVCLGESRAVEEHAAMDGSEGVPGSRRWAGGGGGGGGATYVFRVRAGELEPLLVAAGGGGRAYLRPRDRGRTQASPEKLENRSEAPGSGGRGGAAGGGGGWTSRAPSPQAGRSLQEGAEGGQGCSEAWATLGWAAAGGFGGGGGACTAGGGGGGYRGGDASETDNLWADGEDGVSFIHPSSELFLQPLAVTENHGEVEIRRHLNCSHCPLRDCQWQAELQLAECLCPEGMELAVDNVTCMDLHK
Description: (§2) The right panel represents the binding isotherm obtained from the integration of the raw data and fitted to a one-site model. Standard deviations were calculated based on 3 measurements.
as §1

[3] = biological target: T2, LTKTG-EGFL (human LTK amino acids …); assay: ITC, 310 K, one-site model, 2:1 stoichiometry
Description: as §2, §1

[4] = biological target: T3, ALKTG-EGFL (human ALK amino acids 648-1025) (human, UniProt Q9UM73 648-1025, N-linked glycans; EndoH-trimmed (deglycosylated) for crystals and SEC-MALLS); assay: BLI, biotinylated ALKAL1 on streptavidin biosensors, ALKTG-EGFL in solution 6 µM to 400 nM, 1:1 model
T3 construct: The C-terminal Fc-His6 tag was removed by caspase 3; also called ALK (in BLI, SEC-MALLS and ITC)
T3 sequence (Q9UM73 648-1025): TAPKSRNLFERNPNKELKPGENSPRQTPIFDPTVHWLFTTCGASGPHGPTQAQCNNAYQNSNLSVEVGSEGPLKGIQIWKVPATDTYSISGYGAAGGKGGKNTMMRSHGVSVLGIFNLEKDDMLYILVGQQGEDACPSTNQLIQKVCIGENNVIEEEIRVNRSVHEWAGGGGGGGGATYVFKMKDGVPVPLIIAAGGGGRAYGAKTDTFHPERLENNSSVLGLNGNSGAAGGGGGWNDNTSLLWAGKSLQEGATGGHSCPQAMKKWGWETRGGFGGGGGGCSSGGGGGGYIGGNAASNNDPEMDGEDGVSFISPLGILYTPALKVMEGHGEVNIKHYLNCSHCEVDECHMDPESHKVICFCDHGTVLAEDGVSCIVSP
Excerpt: (§3) FIGS. 10A and 10B Representative response curves as measure by biolayer-interferometry (BLI) for the interaction of WT ALKAL1 and ALKAL1 mutants (containing charge-reversal mutations of residues involved in site 1) (FIG. 10A) and WT ALKAL2 and ALKAL2 mutants (FIG. 10B) with ALK_TG-EGFL and LTK_TG-EGFL. For WT ALKALs LTK curves were fitted with a 2:1 binding model (red) while for ALK a 1:1 model was used. Start and end concentrations of the 3-fold dilution series used for the WT measurements is shown as an inset while for all mutants a […] dilution series from 6.4 μM-400 nM was used.
(§4) All measurements of binding kinetics and dissociation constants were performed using an Octet Red 96 (Forté Bio) in assay buffer (20 mM HEPES pH 7.4, 150 mM NaCl, 0.02% (w/v) BSA, 0.002% (v/v) Tween 20) at 298K. ALKALs were immobilized to a level of 0.5 nm on streptavidin-coated biosensors (Forté Bio). To verify that no a specific binding was present during the assay, non-functionalized biosensors were used as a control by measuring in parallel all ligand concentrations as well as running buffer. For all mutants a two-fold dilution series from 6.4 μM-400 nM was employed. Data analysis was performed using the Data Analysis software 9.0.0.14 (Forté Bio) and binding curves were exported to Prism8 (Graphpad Software) for plotting of curves.

[5] = biological target: T3, ALKTG-EGFL (human ALK amino acids …); assay: ITC, 310 K, one-site model
Description: (§5) FIG. 5A and FIG. 5B Isothermal titration calorimetry thermograms for the titration of ALK_TG-EGFL (10 μM) with ALKAL2 (100 μM) (FIG. 5A) and titration of ALKAL1 (25 μM) with ALK_TG-EGFL (210 μM) (FIG. 5B). […] The right panel represents the binding isotherm obtained from the integration of the raw data and fitted to a one-site model. Standard deviations were calculated based on 3 measurements.
as §1

[6] = biological target: T2, LTKTG-EGFL (human LTK amino acids …); assay: BLI, biotinylated ALKAL1 on streptavidin biosensors, LTKTG-EGFL in solution 300 nM to 11 nM, 2:1 binding model, component 2
Excerpt: as §3, §4

[7] = biological target: T4, LTKTG (human LTK amino acids 63-379) (human, UniProt P29376 63-379); assay: ITC at 310 K, LTKTG (10 µM) titrated with ALKAL1 (70 µM), one-site model
T4 construct: also called LTK TG supradomain
T4 sequence: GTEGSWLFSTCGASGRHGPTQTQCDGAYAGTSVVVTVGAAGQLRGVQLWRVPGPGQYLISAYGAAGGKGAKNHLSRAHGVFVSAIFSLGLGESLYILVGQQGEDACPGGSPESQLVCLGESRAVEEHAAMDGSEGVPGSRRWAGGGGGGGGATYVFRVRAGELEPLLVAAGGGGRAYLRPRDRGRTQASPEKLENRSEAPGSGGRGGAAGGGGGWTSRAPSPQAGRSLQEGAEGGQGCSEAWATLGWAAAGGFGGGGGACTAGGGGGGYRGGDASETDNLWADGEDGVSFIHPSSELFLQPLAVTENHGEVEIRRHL
Description: FIG. 12F, ITC experiments for the titration of LTKTG (10 μM) with ALKAL1 (70 μM) Standard deviations were calculated based on 2 measurements.
as §1

[8] = biological target: T1, ALKTG (human ALK amino acids 648-985); assay: ITC at 310 K, ALKAL1 (33 µM) titrated with ALKTG (330 µM), one-site model
Description: FIG. 5E, Titration of ALKAL1 (33 μM) with ALKTG (330 μM) Standard deviations were calculated based on 3 measurements.
as §1

[9] = biological target: T2, LTKTG-EGFL (human LTK amino acids …); assay: BLI, biotinylated ALKAL1 on streptavidin biosensors, LTKTG-EGFL in solution 300 nM to 11 nM, 2:1 binding model, component 1
Excerpt: as §3, §4

[10] = biological target: T3, ALKTG-EGFL (human ALK amino acids …); assay: ITC at 310 K, ALKAL1 (25 µM) titrated with ALKTG-EGFL (210 µM), one-site model
Description: as §5, §1

[11] = biological target: T2, LTKTG-EGFL (human LTK amino acids …); assay: BLI, biotinylated ALKAL1 R115E on streptavidin biosensors, LTKTG-EGFL in solution, dilution series 6.4 µM-400 nM
Excerpt: as §3, §4

[12] = biological target: T2, LTKTG-EGFL (human LTK amino acids …); assay: BLI, biotinylated ALKAL1 F76E on streptavidin biosensors, LTKTG-EGFL in solution, dilution series 6.4 µM-400 nM, biphasic fit, component 2
Excerpt: as §3, §4

[13] = biological target: T2, LTKTG-EGFL (human LTK amino acids …); assay: BLI, biotinylated ALKAL1 F76E on streptavidin biosensors, LTKTG-EGFL in solution, dilution series 6.4 µM-400 nM, biphasic fit, component 1
Excerpt: as §3, §4

[14] = biological target: T2, LTKTG-EGFL (human LTK amino acids …); assay: BLI, biotinylated ALKAL1 R102E on streptavidin biosensors, LTKTG-EGFL in solution, dilution series 6.4 µM-400 nM
Excerpt: as §3, §4

[15] = biological target: T3, ALKTG-EGFL (human ALK amino acids …); assay: BLI, biotinylated ALKAL2 F97E on streptavidin biosensors, ALKTG-EGFL in solution
Excerpt: as §3, §4

[16] = biological target: T2, LTKTG-EGFL (human LTK amino acids …); assay: BLI, biotinylated ALKAL2 F97E on streptavidin biosensors, LTKTG-EGFL in solution, dilution series 6.4 µM-400 nM; only component 1 is printed
Excerpt: as §3, §4

[17] = biological target: T3, ALKTG-EGFL (human ALK amino acids …); assay: BLI, biotinylated ALKAL2 R136E on streptavidin biosensors, ALKTG-EGFL in solution, dilution series 6.4 µM-400 nM
Excerpt: as §3, §4

[18] = biological target: T2, LTKTG-EGFL (human LTK amino acids …); assay: BLI, biotinylated ALKAL2 R136E on streptavidin biosensors, LTKTG-EGFL in solution, dilution series 6.4 µM-400 nM
Excerpt: as §3, §4

[19] = biological target: T4, LTKTG (human LTK amino acids 63-379); assay: ITC at 310 K, LTKTG (10 µM) titrated with ALKAL1FL (40 µM), one-site model
Description: FIG. 12H, ITC experiments for the titration of LTKTG (10 μM) with ALKAL1FL (40 μM) Standard deviations were calculated based on 2 measurements.
as §1

[20] = biological target: T2, LTKTG-EGFL (human LTK amino acids …); assay: ITC at 310 K, LTKTG-EGFL (7.2 µM) titrated with ALKAL1FL (55 µM), one-site model
Description: as §2, §1

fold decrease in affinity against ALKTG-EGFL [1]: 4 fold
Kd [2]: 55 nM
ΔG [2]: -10.4 kcal/mol
ΔH [2]: -29.4 kcal/mol
Kd [3]: 10 nM
Kd [4]: 760 nM
koff [4]: 0.093 s⁻¹
kon [4]: 130000 M⁻¹ s⁻¹
Kd [5]: 600 nM
Kd [6]: 31 nM
koff [6]: 0.026 s⁻¹
kon [6]: 860000 M⁻¹ s⁻¹
Kd [7]: 69 nM
ΔG [7]: -10.2 kcal/mol
ΔH [7]: -28.6 kcal/mol
Kd [8]: 2500 nM
ΔG [8]: -7.95 kcal/mol
ΔH [8]: -5.5 kcal/mol
Kd [9]: 48 nM
koff [9]: 0.0025 s⁻¹
kon [9]: 52000 M⁻¹ s⁻¹
ΔG [10]: -8.93 kcal/mol
ΔH [10]: -7.3 kcal/mol
B1: ALKAL1 (truncated, residues 57-129) (ligand, human, UniProt Q6UXT8 57-129, looked up)
chain: PSGSRSAEIFPRDSNLKDKFIKHFTGPVTFSPECSKHFHRLYYNTRECSTPAYYKRCARLLTRLAVSPLCSQT
notes: range 57-129; Tag-free in ITC, SEC-MALLS, crystals and Ba/F3 assays; also called ALKAL1^WT; WT ALKAL1

Kd [11]: 3.1 µM
koff [11]: 0.041 s⁻¹
kon [11]: 13000 M⁻¹ s⁻¹
B2: ALKAL1^R115E (residues 57-129) (ligand, human, UniProt Q6UXT8 57-129, looked up)
chain: B1 chain with R59E
notes: range 57-129; also called ALKAL1 site 1 mutant R115E

Kd [12]: 1500 nM
koff [12]: 0.11 s⁻¹
kon [12]: 60000 M⁻¹ s⁻¹
Kd [13]: 350 nM
koff [13]: 0.0005 s⁻¹
kon [13]: 4000 M⁻¹ s⁻¹
B3: ALKAL1^F76E (residues 57-129) (ligand, human, UniProt Q6UXT8 57-129, looked up)
chain: B1 chain with F20E
notes: range 57-129; Avi-tagged and biotinylated in BLI; used as purified protein in SEC-MALLS and Ba/F3 assays; also called ALKAL1 site 2 mutant

Kd [14]: 14 µM
B4: ALKAL1^R102E (residues 57-129) (ligand, human, UniProt Q6UXT8 57-129, looked up)
chain: B1 chain with R46E
notes: range 57-129; also called ALKAL1 site 1 mutant R102E

Kd [15]: 200 nM
koff [15]: 0.071 s⁻¹
kon [15]: 450000 M⁻¹ s⁻¹
Kd [16]: 8.4 µM
koff [16]: 0.16 s⁻¹
kon [16]: 53000 M⁻¹ s⁻¹
B5: ALKAL2^F97E (residues 78-152) (ligand, human, UniProt Q6UX46 78-152, looked up)
chain: PSPEQRVEIVPRDLRMKDKELKHLTGPLYFSPKCSKHFHRLYHNTRDCTIPAYYKRCARLLTRLAVSPVCMEDKQ
notes: range 78-152; Avi-tagged and biotinylated in BLI; used as purified protein in SEC-MALLS and Ba/F3 assays; also called ALKAL2 site 2 mutant F97E

Kd [17]: 1500 nM
koff [17]: 0.8 s⁻¹
Kd [18]: 5.9 µM
koff [18]: 0.12 s⁻¹
kon [18]: 20000 M⁻¹ s⁻¹
B6: ALKAL2^R136E (residues 78-152) (ligand, human, UniProt Q6UX46 78-152, looked up)
chain: B5 chain with E20F, R59E
notes: range 78-152; also called ALKAL2 site 1 mutant R136E

Kd [19]: 24 nM
ΔG [19]: -10.8 kcal/mol
ΔH [19]: -29.6 kcal/mol
Kd [20]: 11 nM
ΔG [20]: -11.3 kcal/mol
ΔH [20]: -31.7 kcal/mol
B7: ALKAL1FL (full-length ALKAL1, residues 28-129) (ligand, human, UniProt Q6UXT8 28-129, looked up)
chain: RPRGRRGARVTDKEPKPLLFLPAAGAGRTPSGSRSAEIFPRDSNLKDKFIKHFTGPVTFSPECSKHFHRLYYNTRECSTPAYYKRCARLLTRLAVSPLCSQT
notes: range 28-129; Sumostar tag removed by caspase 3
